The values that follow come from patent US20220298229A1 (ICHOR BIOLOGICS, published 2022).

This experiment addresses T1, Vesicular Stomatitis Virus Glycoprotein (VSV-G) (Vesicular Stomatitis Virus, UniProt P03522 17-511).
T1 construct: whole, on cells
As to the kind of experiment: flow cytometry, VSV-G-transfected 293T cells (FIG. 4C). A general note: Flow cytometry measures light scatter and fluorescence of single cells or particles in a stream.

T1 sequence (P03522 17-511): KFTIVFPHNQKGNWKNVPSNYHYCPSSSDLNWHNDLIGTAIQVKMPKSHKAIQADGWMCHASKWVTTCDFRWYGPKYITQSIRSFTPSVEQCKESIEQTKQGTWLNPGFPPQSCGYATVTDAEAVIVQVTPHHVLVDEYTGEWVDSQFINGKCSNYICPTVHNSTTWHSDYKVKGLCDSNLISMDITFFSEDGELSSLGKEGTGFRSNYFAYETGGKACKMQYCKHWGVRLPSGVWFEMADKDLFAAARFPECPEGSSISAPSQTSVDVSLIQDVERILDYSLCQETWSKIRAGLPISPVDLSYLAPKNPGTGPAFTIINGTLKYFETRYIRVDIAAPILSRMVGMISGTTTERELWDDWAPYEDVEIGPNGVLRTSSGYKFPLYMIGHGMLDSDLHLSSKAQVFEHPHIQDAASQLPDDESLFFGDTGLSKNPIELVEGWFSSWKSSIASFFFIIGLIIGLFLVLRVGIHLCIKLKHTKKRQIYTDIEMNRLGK

B1: monoclonal antibody MIB22 (antibody, V domains shown)
VH: EVQLVQSGAELKKPGSSVKVSCKASGGTFVGYGVSWVRQVPGHGPEWMGGFSPISNTANYAERFQGRVTMIVDGSTSTAYMELRSLRSEDTAIYYCARSCDFWNAYYNNWFDPWGQGTLVTVSS
VL: AQSALTQPASVSGSPGQSITISCTGTSSDFADYNSVSWYQQHPGKAPKLLIFDVNDRPSGVSHRFSGSKSGNTASLTISGLQAEDESDYYCTSYTICNSYVFGTGTKVTVLG
notes: also called MIB22 IgG; first antibody
In the case of B1, the binding result was “no binding (tested: 1 to 15 µg/ml)”.
